# Assay results from publication PMC4258113 (Journal of proteome research, 2013).
# Where no end group is shown, it is not given here. Me3 = trimethyl-lysine (trimethylated lysine)
# T1: GST-tagged chromodomain (a.a. 1-90) of Drosophila melanogaster polycomb protein (Drosophila melanogaster, UniProt P26017 1-90)
# T1 sequence (looked up): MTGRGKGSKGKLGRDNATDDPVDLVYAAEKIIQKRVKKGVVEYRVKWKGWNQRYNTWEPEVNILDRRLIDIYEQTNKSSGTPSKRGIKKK
# Target: T1, GST-tagged chromodomain (a.a. 1-90) of …
# Test: peptide or protein array
row,binding result,Binder
1,binds,"REIRRYQK(Me3)S [trimethylated histone peptide REIRRYQKS (H3.3, lysine site 56)]"
2,binds,"MDVVYALK(Me3)R [trimethylated histone peptide MDVVYALKR (H4, lysine site 91)]"
3,binds,"EGTKAVTK(Me3)Y [trimethylated histone peptide EGTKAVTKY (H2B1A and other H2B, lysine site 117)]"
4,binds,"GGAKRHRK(Me3)V [trimethylated histone peptide GGAKRHRKV (H4, lysine site 20)]"
5,binds,"ASKDLKVK(Me3)R [trimethylated histone peptide ASKDLKVKR (H2AZ, H2AV, lysine site 79)]"
6,binds,"RTKQTARK(Me3)S [trimethylated histone peptide RTKQTARKS (H3.3, lysine site 9)]"
7,binds,"GRIHRHLK(Me3)S [trimethylated histone peptide GRIHRHLKS (H2AZ, lysine site 37)]"
8,binds,"LATKAARK(Me3)S [trimethylated histone peptide LATKAARKS (H3.3, lysine site 27)]"
9,binds,"IQAVLLPK(Me3)K [trimethylated histone peptide IQAVLLPKK (H2A1 and other H2A, lysine site 117)]"
10,binds,"DSGKAKAK(Me3)A [trimethylated histone peptide DSGKAKAKA (H2AV, lysine site 15)]"
11,binds,"PRKQLATK(Me3)A [trimethylated histone peptide PRKQLATKA (H3.3, lysine site 23)]"
12,binds,"RIHRLLRK(Me3)G [trimethylated histone peptide RIHRLLRKG (H2A1A, lysine site 35)]"
